Bridges are numbered along the chain shown (N, C = ends). Where no end group is shown, it is not given here. [ ]: non-standard residue; d: D form. The star is where a group is joined. DOTA = O=C(O)CN1CCN(CC(=O)O)CCN(CC(=O)*)CCN(CC(=O)O)CC1
Target: somatostatin subtype 2 rat receptor (rat, UniProt P30680 1-369)
Assay: cell-based or functional assay

Chain of somatostatin subtype 2 rat receptor (P30680 whole entry): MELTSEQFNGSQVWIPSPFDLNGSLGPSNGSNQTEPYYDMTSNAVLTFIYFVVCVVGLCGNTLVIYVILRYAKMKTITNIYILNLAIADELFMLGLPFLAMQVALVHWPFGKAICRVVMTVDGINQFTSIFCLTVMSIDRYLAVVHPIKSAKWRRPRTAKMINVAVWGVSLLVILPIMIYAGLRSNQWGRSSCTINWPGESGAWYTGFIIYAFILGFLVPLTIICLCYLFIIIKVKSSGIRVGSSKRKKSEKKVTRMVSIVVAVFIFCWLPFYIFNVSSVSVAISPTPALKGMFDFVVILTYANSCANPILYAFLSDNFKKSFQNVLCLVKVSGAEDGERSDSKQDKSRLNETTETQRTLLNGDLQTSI

B1: D-Ser-D-Ser-D-Ser-D-Ser-D-Ser-D-Ser-D-Ser-D-Ser-D-Ser-D-Ser-L-Lys-D-Tyr-D-Tyr-cyclo[L-Cys-L-Phe-D-Trp-L-Lys-L-Thr-L-Cys]-L-Thr-NH2 (peptide)
peptide: [dS][dS][dS][dS][dS][dS][dS][dS][dS][dS]K[dY][dY]CF[dW]KTCT-NH2
modifications: disulfide 14-19; N-terminus assumed
SMILES: C[C@@H](O)[C@H](NC(=O)[C@@H]1CSSC[C@H](NC(=O)[C@@H](Cc2ccc(O)cc2)NC(=O)[C@@H](Cc2ccc(O)cc2)NC(=O)[C@H](CCCCN)NC(=O)[C@@H](CO)NC(=O)[C@@H](CO)NC(=O)[C@@H](CO)NC(=O)[C@@H](CO)NC(=O)[C@@H](CO)NC(=O)[C@@H](CO)NC(=O)[C@@H](CO)NC(=O)[C@@H](CO)NC(=O)[C@@H](CO)NC(=O)[C@H](N)CO)C(=O)N[C@@H](Cc2ccccc2)C(=O)N[C@H](Cc2c[nH]c3ccccc23)C(=O)N[C@@H](CCCCN)C(=O)N[C@@H]([C@@H](C)O)C(=O)N1)C(N)=O
IC50 (nM), inhibition of GH release from primary cultures of rat pituitary cells: 0.12 nM

B2: Acetyl-D-Ser-D-Ser-D-Ser-D-Ser-D-Ser-D-Ser-D-Ser-D-Ser-D-Ser-D-Ser-L-Lys-D-Tyr-D-Tyr-cyclo[L-Cys-L-Phe-D-Trp-L-Lys-L-Thr-L-Cys]-L-Thr-NH2 (peptide)
peptide: Ac-[dS][dS][dS][dS][dS][dS][dS][dS][dS][dS]K[dY][dY]CF[dW]KTCT-NH2
modifications: disulfide 14-19
SMILES: CC(=O)N[C@H](CO)C(=O)N[C@H](CO)C(=O)N[C@H](CO)C(=O)N[C@H](CO)C(=O)N[C@H](CO)C(=O)N[C@H](CO)C(=O)N[C@H](CO)C(=O)N[C@H](CO)C(=O)N[C@H](CO)C(=O)N[C@H](CO)C(=O)N[C@@H](CCCCN)C(=O)N[C@H](Cc1ccc(O)cc1)C(=O)N[C@H](Cc1ccc(O)cc1)C(=O)N[C@H]1CSSC[C@@H](C(=O)N[C@H](C(N)=O)[C@@H](C)O)NC(=O)[C@H]([C@@H](C)O)NC(=O)[C@H](CCCCN)NC(=O)[C@@H](Cc2c[nH]c3ccccc23)NC(=O)[C@H](Cc2ccccc2)NC1=O
IC50 (nM), inhibition of GH release from primary cultures of rat pituitary cells: 0.57 nM

B3: D-Ser-D-Ser-D-Ser-D-Ser-D-Ser-L-Lys-D-Ser-D-Ser-cyclo[L-Cys-L-Phe-D-Trp-L-Lys-L-Thr-L-Cys]-L-Thr-NH2 (peptide)
peptide: [dS][dS][dS][dS][dS]K[dS][dS]CF[dW]KTCT-NH2
modifications: disulfide 9-14; N-terminus assumed
SMILES: C[C@@H](O)[C@H](NC(=O)[C@@H]1CSSC[C@H](NC(=O)[C@@H](CO)NC(=O)[C@@H](CO)NC(=O)[C@H](CCCCN)NC(=O)[C@@H](CO)NC(=O)[C@@H](CO)NC(=O)[C@@H](CO)NC(=O)[C@@H](CO)NC(=O)[C@H](N)CO)C(=O)N[C@@H](Cc2ccccc2)C(=O)N[C@H](Cc2c[nH]c3ccccc23)C(=O)N[C@@H](CCCCN)C(=O)N[C@@H]([C@@H](C)O)C(=O)N1)C(N)=O
IC50 (nM), inhibition of GH release from primary cultures of rat pituitary cells: 3.29 nM

B4: DOTA-D-Ser-D-Ser-D-Ser-D-Ser-D-Ser-D-Ser-D-Ser-D-Ser-D-Ser-D-Ser-L-Lys-D-Tyr-D-Tyr-cyclo[L-Cys-L-Phe-D-Trp-L-Lys-L-Thr-L-Cys]-L-Thr-NH2 (peptide)
peptide: {DOTA}-[dS][dS][dS][dS][dS][dS][dS][dS][dS][dS]K[dY][dY]CF[dW]KTCT-NH2
modifications: disulfide 14-19
SMILES: C[C@@H](O)[C@H](NC(=O)[C@@H]1CSSC[C@H](NC(=O)[C@@H](Cc2ccc(O)cc2)NC(=O)[C@@H](Cc2ccc(O)cc2)NC(=O)[C@H](CCCCN)NC(=O)[C@@H](CO)NC(=O)[C@@H](CO)NC(=O)[C@@H](CO)NC(=O)[C@@H](CO)NC(=O)[C@@H](CO)NC(=O)[C@@H](CO)NC(=O)[C@@H](CO)NC(=O)[C@@H](CO)NC(=O)[C@@H](CO)NC(=O)[C@@H](CO)NC(=O)CN2CCN(CC(=O)O)CCN(CC(=O)O)CCN(CC(=O)O)CC2)C(=O)N[C@@H](Cc2ccccc2)C(=O)N[C@H](Cc2c[nH]c3ccccc23)C(=O)N[C@@H](CCCCN)C(=O)N[C@@H]([C@@H](C)O)C(=O)N1)C(N)=O
IC50 (nM), inhibition of GH release from primary cultures of rat pituitary cells: 0.71 nM

B5: D-Ser-D-Ser-D-Ser-D-Ser-D-Ser-D-Ser-D-Ser-D-Ser-D-Ser-D-Ser-D-Ser-D-Ser-D-Ser-D-Ser-D-Ser-L-Lys-D-Tyr-D-Tyr-cyclo[L-Cys-L-Phe-D-Trp-L-Lys-L-Thr-L-Cys]-L-Thr-NH2 (peptide)
peptide: [dS][dS][dS][dS][dS][dS][dS][dS][dS][dS][dS][dS][dS][dS][dS]K[dY][dY]CF[dW]KTCT-NH2
modifications: disulfide 19-24; N-terminus assumed
SMILES: C[C@@H](O)[C@H](NC(=O)[C@@H]1CSSC[C@H](NC(=O)[C@@H](Cc2ccc(O)cc2)NC(=O)[C@@H](Cc2ccc(O)cc2)NC(=O)[C@H](CCCCN)NC(=O)[C@@H](CO)NC(=O)[C@@H](CO)NC(=O)[C@@H](CO)NC(=O)[C@@H](CO)NC(=O)[C@@H](CO)NC(=O)[C@@H](CO)NC(=O)[C@@H](CO)NC(=O)[C@@H](CO)NC(=O)[C@@H](CO)NC(=O)[C@@H](CO)NC(=O)[C@@H](CO)NC(=O)[C@@H](CO)NC(=O)[C@@H](CO)NC(=O)[C@@H](CO)NC(=O)[C@H](N)CO)C(=O)N[C@@H](Cc2ccccc2)C(=O)N[C@H](Cc2c[nH]c3ccccc23)C(=O)N[C@@H](CCCCN)C(=O)N[C@@H]([C@@H](C)O)C(=O)N1)C(N)=O
IC50 (nM), inhibition of GH release from primary cultures of rat pituitary cells: 0.32 nM
